In ChEMBL document CHEMBL1122375, “Synthesis and biological evaluation of 2-fluoro-8-azaadenosine and related compounds” (J Med Chem, 1983):

Assays:
[1] = substrate: COC[C@H]1O[C@@H](n2cnc3c(O)nc(N)nc32)[C@H](OC)[C@@H]1OC; test: (§1) Kinetic parameter in calf intestine adenosine deaminase.
[2] = substrate: COC[C@H]1O[C@@H](n2nnc3c(O)nc(N)nc32)[C@H](OC)[C@@H]1OC; test: as §1
[3] = substrate: COc1ncnc2c1ncn2[C@@H]1O[C@H](CO)[C@@H](O)[C@@H]1O; test: as §1
[4] = substrate: COc1ncnc2c1nnn2[C@@H]1O[C@H](CO)[C@@H](O)[C@H]1O; test: as §1
[5] = substrate: Nc1nc(F)nc2c1ncn2[C@@H]1O[C@H](CO)[C@@H](O)[C@H]1O; test: as §1
[6] = substrate: Nc1nc(F)nc2c1nnn2C1O[C@H](CO)[C@@H](O)[C@H]1O; test: as §1
[7] = substrate: Nc1nc(N)c2ncn([C@@H]3O[C@H](CO)[C@@H](O)[C@H]3O)c2n1; test: as §1
[8] = substrate: Nc1ncnc2c1nnn2[C@@H]1O[C@H](CO)[C@@H](O)[C@H]1O; test: as §1
[9] = substrate: Nc1ncnc2c1nnn2[C@H]1C[C@H](O)[C@@H](CO)O1; test: as §1

B1: Adenosine deaminase (Bos taurus), P56658 (protein)
chain: MAQTPAFNKPKVELHVHLDGAIKPETILYYGRKRGIALPADTPEELQNIIGMDKPLSLPEFLAKFDYYMPAIAGCREAVKRIAYEFVEMKAKDGVVYVEVRYSPHLLANSKVEPIPWNQAEGDLTPDEVVSLVNQGLQEGERDFGVKVRSILCCMRHQPSWSSEVVELCKKYREQTVVAIDLAGDETIEGSSLFPGHVKAYAEAVKSGVHRTVHAGEVGSANVVKEAVDTLKTERLGHGYHTLEDATLYNRLRQENMHFEVCPWSSYLTGAWKPDTEHPVVRFKNDQVNYSLNTDDPLIFKSTLDTDYQMTKNEMGFTEEEFKRLNINAAKSSFLPEDEKKELLDLLYKAYGMPSPASAEQCL
- Km [1]: 42 µM
- Km [2]: 22 µM
- Km [3]: 50 µM
- Km [4]: 140 µM
- Km [5]: 81 µM
- Km [6]: 250 µM
- Km [7]: 33 µM
- Km [8]: 250 µM
- Km [9]: 220 µM
